Test results from patent US20240390497A1 (Stanford University, published 2024).

Molecular target: T1, human CD93/Fc fusion protein (human, UniProt Q9NPY3 22-580, limits assumed)
T1 construct: It was biotinylated or DyLight 650-conjugated for staining; also called CD93-Fc chimera protein; CD93-Fc biotinylated protein; not shown: Fc part
T1 sequence (looked up): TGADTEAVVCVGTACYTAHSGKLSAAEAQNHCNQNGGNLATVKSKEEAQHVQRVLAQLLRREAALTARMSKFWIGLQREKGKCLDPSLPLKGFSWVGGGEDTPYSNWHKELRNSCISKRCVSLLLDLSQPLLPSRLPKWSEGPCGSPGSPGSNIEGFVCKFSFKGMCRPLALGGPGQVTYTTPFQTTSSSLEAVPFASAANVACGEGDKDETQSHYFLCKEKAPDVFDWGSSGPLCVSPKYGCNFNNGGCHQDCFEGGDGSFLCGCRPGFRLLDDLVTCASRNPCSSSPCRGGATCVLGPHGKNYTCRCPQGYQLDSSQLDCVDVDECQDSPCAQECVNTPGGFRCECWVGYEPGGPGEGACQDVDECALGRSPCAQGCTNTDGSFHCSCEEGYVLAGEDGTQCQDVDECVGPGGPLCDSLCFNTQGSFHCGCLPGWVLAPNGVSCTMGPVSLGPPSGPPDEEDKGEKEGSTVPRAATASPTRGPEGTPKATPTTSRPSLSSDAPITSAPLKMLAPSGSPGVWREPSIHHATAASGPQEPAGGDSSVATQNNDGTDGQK
Assay: ELISA on coated human CD93/Fc, HRP anti-human kappa secondary, OD490
Procedure: FIGS. 2A-2O are sets of graphs illustrating that CD93-CAR T cells exert anti-leukemic effects against AML in vitro. FIG. 2A is a bar chart showing that humanized (“HuF11-G1” and “HuF11-G1 TM”) and chimeric F11 (“ChF11-G1”) monoclonal antibodies bind human CD93 with similar affinity. Human CD93/Fc fusion protein was coated in a 96-well plate and different concentrations of the antibodies as indicated were added. HRP-conjugated anti-human Kappa antibody was used as a secondary antibody. CD93 binding activity was measured by reading signals at OD490 […]. FIG. 2B is a cartoon showing the structure of CD93-28z and CD93-BBz CARs. […] Cells were fed with new media every 2-3 days, analyzed for transduction efficiency and phenotype on day 10-11, and processed for downstream experiments. FIG. 2D is a bar graph showing comparing transduction efficiency for each of aCAR molecule and control (“Mock”), measured by flow cytometry on day 10 after T cell activation. […] FIG. 2F is a set of graphs comparing expression levels of markers of T cell activation/exhaustion, including LAG-3, PD-1, TIM-3, and CD39, measured by flow cytometry on day 10 after T cell activation, prior to downstream experiments. […] FIG. 2G is a graph showing CD93 expression on AML cell lines, measured by flow cytometry after staining with biotinylated F11 antibody followed by streptavidin-APC. […]

B1: humanized F11 monoclonal antibody (HuF11-G1) (antibody, V domains shown)
VH: QVQLVQSGAEVKKPGASVKVSCKASGYTFTDYHMDWVKQAPGQGLEWIGDIDPYNGDTVFNQKFKGKATMTRDTSISTAYMELSRLRSDDTAVYYCTRGGDYWGQGTLVTVSS
VL: DIVMTQTPLSLSVTPGQPASISCRSSQTLVHSNGNTYLHWYLQKPGQPPQLLIYKVSNRFSGVPDRFSGSGSGTDFTLKISRVEAEDVGVYFCSQSTHVPFTFGQGTKLEIK
notes: also called humanized F11 antibody
  EC50 (read off the curve): ~0.03 µg/mL

B2: humanized F11 monoclonal antibody (HuF11-G1 TM) (antibody, V domains shown)
VH: QVQLVQSGAEVKKPGASVKVSCKASGYTFTDYHMDWVKQAPGQGLEWIGDIDPYNGDTVFNQKFKGKATMTRDTSISTAYMELSRLRSDDTAVYYCTRGGDYWGQGTLVTVSS
VL: DIVMTQTPLSLSVTPGQPASISCRSSQTLVHSNGNTYLHWYLQKPGQPPQLLIYKVSNRFSGVPDRFSGSGSGTDFTLKISRVEAEDVGVYFCSQSTHVPFTFGQGTKLEIK
notes: as for B1
  EC50 (read off the curve): ~0.03 µg/mL
